Experimental data taken from patent US20250304677A1 (VIB VZW, published 2025).
Substitutions are numbered along the chain they refer to. Names may count otherwise.

B1: P01500056: P01500001(I33L, D72P, N73G)-FLAG3-HIS6 (VHH)
VHH: EVQLVESGGGLVQPGGSLRLSCAASGSGFSGMLMGWYRQAPGKQRELVATVTSHGTTNYADSVKGRFTISRPGAKNTVYLQMNSLRPEDTAVYYCNAHFPGIYWGKGTLVTVSS
notes: also called P0150056
B2: P01500057: P01500001(G26E, G28P, D72E, N73G)-FLAG3-HIS6 (VHH)
VHH: B1 VHH with G26E, G28P, L33I, P72E
notes: also called P0150057
B3: P01500079: P01500001[E1D]Flag3-His6-GS-NT (VHH)
VHH: B1 VHH with E1D, L33I, P72D, G73N
notes: Entry includes tags, linker and NT(8-13); also called humanised 2HFO42, P01500079
B4: P01500072: P01500001[E1D, G26E, G28P, D72E, N73G]Flag3-His6-GS-NT (VHH)
VHH: B1 VHH with E1D, G26E, G28P, L33I, P72E
notes: Entry includes tags, linker and NT(8-13)
B5: P01500070: P01500001[E1D, I33F, N73P]Flag3-His6-GS-NT (VHH)
VHH: B1 VHH with E1D, L33F, P72D, G73P
notes: Entry includes tags, linker and NT(8-13); produced in HEK-F cells
B6: P01500071: P01500001[E1D, G26E, I33F]Flag3-His6-GS-NT (VHH)
VHH: B1 VHH with E1D, G26E, L33F, P72D, G73N
notes: as for B4
B7: P01500012: P0150001 with M32I (VHH)
VHH: B1 VHH with M32I, L33I, P72D, G73N
notes: Entry carries a His6 tag
B8: P01500085: P0150001 with A24V, S27L, M32P (VHH)
VHH: B1 VHH with A24V, S27L, M32P, L33I, P72D, G73N
B9: P01500088: P0150001 with S27T, M32I (VHH)
VHH: B1 VHH with S27T, M32I, L33I, P72D, G73N
B10: P01500084: P0150001 with A24V, S27T, M32I, N76D (VHH)
VHH: B1 VHH with A24V, S27T, M32I, L33I, P72D, G73N, N76D
B11: P01500089: P0150001 with S27T, M32I, N76D (VHH)
VHH: B1 VHH with S27T, M32I, L33I, P72D, G73N, N76D
B12: P01500090: P0150001 with A24V, S27L, M32P, N67E (VHH)
VHH: B1 VHH with A24V, S27L, M32P, L33I, P72D, G73N, N76E
B13: P01500014: P0150001 with M32P (VHH)
VHH: B1 VHH with M32P, L33I, P72D, G73N
notes: Entry carries a His6 tag
B14: P01500087: P0150001 with A24L, S27A, M32P, N67E (VHH)
VHH: B1 VHH with A24L, S27A, M32P, L33I, P72D, G73N, N76E
B15: P01500086: P0150001 with A24L, S27A, M32P (VHH)
VHH: B1 VHH with A24L, S27A, M32P, L33I, P72D, G73N
B16: [D72E] (VHH)
VHH: B1 VHH with L33I, P72E, G73N
notes: library clone tested as crude periplasmic extract; also called P01500001[D72E]
B17: [I33L] (VHH)
VHH: B1 VHH with P72D, G73N
notes: library clone tested as crude periplasmic extract; also called P01500001[I33L]
B18: [S30I] (VHH)
VHH: B1 VHH with S30I, L33I, P72D, G73N
notes: library clone tested as crude periplasmic extract; also called P01500001[S30I]
B19: [G28T] (VHH)
VHH: B1 VHH with G28T, L33I, P72D, G73N
notes: library clone tested as crude periplasmic extract; also called P01500001[G28T]
B20: [N73G] (VHH)
VHH: B1 VHH with L33I, P72D
notes: library clone tested as crude periplasmic extract; also called P01500001[N73G]
B21: [I33F] (VHH)
VHH: B1 VHH with L33F, P72D, G73N
notes: library clone tested as crude periplasmic extract; also called P01500001[I33F]
B22: [V51R] (VHH)
VHH: B1 VHH with L33I, V51R, P72D, G73N
notes: library clone tested as crude periplasmic extract; also called P01500001[V51R]
B23: [D72P] (VHH)
VHH: B1 VHH with L33I, G73N
notes: library clone tested as crude periplasmic extract; also called P01500001[D72P]
B24: [G28P] (VHH)
VHH: B1 VHH with G28P, L33I, P72D, G73N
notes: library clone tested as crude periplasmic extract; also called P01500001[G28P]
B25: 2MFR67 (E72D, D72N, S74A)-NT (VHH, not shown: small tags and cut ends)
VHH: B1 VHH with E1Q, V5Q, P14A, L33I, P72D, G73N, Y79L, R86K, L109Q
notes: Second substitution printed D72N; also called 2MFR67 triple mutant
B26: 2HFO9 (I51V,G54H)-NT (VHH)
VHH: B1 VHH with E1Q, V5Q, P14A, L33I, P72D, G73N, Y79L, R86K, L109Q
notes: not shown: neurotensin tridecapeptide (NT) and any linker or tags of the fusion
B27: 2HFO9(I51V)-NT (VHH)
VHH: B1 VHH with E1Q, V5Q, P14A, L33I, H54G, P72D, G73N, Y79L, R86K, L109Q
notes: as for B26
B28: 2HFO9(G54H)-NT (VHH)
VHH: B1 VHH with E1Q, V5Q, P14A, L33I, V51I, P72D, G73N, Y79L, R86K, L109Q
notes: as for B26

Molecular target: T1, human folate receptor alpha expressed on cells (transfected HEK293T, HeLa, MCF7, MDA-MB-231) (human, UniProt P15328 25-234)
T1 construct: HEK293T transiently transfected with human FOLR1; also called native human FRα; cell-expressed human FOLR1
Experiment: flow cytometry on HeLa cells, anti-Flag detection
Method: EC₅₀ values are found in Table 9. Detection of VHH cell binding was done through anti-Flag M2 mIgG1 followed by anti-mFc-PE in flow cytometry. Results are depicted as mean fluorescence intensity ^{∘}MFI).
(§1) Off-rates of purified variants were determined to human, mouse, and cynomolgus FRα in BLI. In addition, binding of the affinity optimised variants to cell-expressed human FRα on HeLa cells was determined by flow cytometry ^{∘}FIG. 10 B).

T1 sequence (P15328 25-234 limits assumed): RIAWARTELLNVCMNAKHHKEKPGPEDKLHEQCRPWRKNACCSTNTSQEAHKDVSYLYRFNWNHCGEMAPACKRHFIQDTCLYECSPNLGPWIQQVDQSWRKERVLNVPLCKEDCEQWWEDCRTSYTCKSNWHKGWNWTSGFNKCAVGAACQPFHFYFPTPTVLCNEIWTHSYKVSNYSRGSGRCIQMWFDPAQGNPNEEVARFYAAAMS

Binder	EC50	MFI top
B1	2.52 nM	55300 MFI
B2	2.56 nM	53800 MFI

Molecular target: T2, cynomolgus folate receptor alpha, recombinant (cynomolgus, UniProt A0A2K5U044 25-233)
T2 construct: also called cyFOLR1; cynomolgus FRα
Experiment: BLI, purified VHH
Outline: (§2)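 Affinity-optimised VHH variants were produced as flag3-His6-tagged proteins in TG-1 E. coli at 0.5 L scale. They were purified from the periplasmic fraction on Ni Sepharose FastFlow columns, desalted, and checked for purity by SDS-PAGE. Off-rates to human, mouse and cynomolgus folate receptor alpha were then determined by biolayer interferometry.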

T2 sequence (A0A2K5U044 entry or part of it): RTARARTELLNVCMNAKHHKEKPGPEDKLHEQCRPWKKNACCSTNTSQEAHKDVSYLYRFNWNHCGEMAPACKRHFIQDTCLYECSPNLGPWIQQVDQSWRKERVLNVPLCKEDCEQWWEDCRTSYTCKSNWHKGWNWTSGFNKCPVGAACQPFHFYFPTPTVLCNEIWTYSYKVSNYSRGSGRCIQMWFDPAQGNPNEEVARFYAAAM

Binder	koff
B1	0.00034 s⁻¹
B2	0.000234 s⁻¹

Molecular target: T3, mouse folate receptor alpha (mFRα), recombinant protein (mouse, UniProt P35846 25-232)
T3 construct: Bought recombinant proteins (e.g. biotinylated, Acro Biosystems FO1-M82E9); also called mFOLR1; Ms FOLR1
Experiment: BLI, purified VHH
Outline: as §2

T3 sequence (P35846 25-232 limits assumed): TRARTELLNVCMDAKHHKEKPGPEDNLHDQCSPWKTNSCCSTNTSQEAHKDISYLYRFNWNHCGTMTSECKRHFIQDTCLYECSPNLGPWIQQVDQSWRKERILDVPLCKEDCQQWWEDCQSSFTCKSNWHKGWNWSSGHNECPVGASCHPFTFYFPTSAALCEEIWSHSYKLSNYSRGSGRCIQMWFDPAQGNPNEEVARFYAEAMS

Binder	koff
B1	3.38e-05 s⁻¹
B2	2.11e-05 s⁻¹

Molecular target: T4, human folate receptor alpha (hFRα), recombinant protein (human, UniProt P15328 25-233)
T4 construct: Bought recombinant proteins (His-tagged, or biotinylated via Avi-tag, e.g. AcroBiosystems FO1-H82E2, F01-H52H1); also called hFOLR1; huFOLR1
Experiment: BLI, purified VHH
Outline: as §2

T4 sequence (P15328 25-233 limits assumed): as the sequence (A0A2K5U044 entry or part of it) above, with T2I, R4W, K37R, P146A, Y171H counted along it

Binder	koff
B1	0.000265 s⁻¹
B2	0.000307 s⁻¹

Molecular target: T3, mouse folate receptor alpha (mFRα), …
Experiment: BLI, Avi-biotinylated FRα
Method: (§3) Purified VHHs ^{∘}100 nM) were analysed for binding to avi-tagged biotinylated FRα protein captured on streptavidin-biosensors via BLI.
as §1

Binder	koff
B1	3.38e-05 s⁻¹
B2	2.11e-05 s⁻¹

Molecular target: T4, human folate receptor alpha (hFRα), …
Experiment: BLI, Avi-biotinylated FRα
Method: as §3, §1

Binder	koff
B1	0.000295 s⁻¹
B2	0.000316 s⁻¹

Molecular target: T3, mouse folate receptor alpha (mFRα), …
Experiment: BLI off-rate analysis

Binder	koff
B3	0.00224 s⁻¹
B4	2.1e-05 s⁻¹
B5	0.000192 s⁻¹
B6	0.000326 s⁻¹

Molecular target: T4, human folate receptor alpha (hFRα), …
Experiment: BLI off-rate analysis

Binder	koff
B3	0.0101 s⁻¹
B4	0.000307 s⁻¹
B5	0.00151 s⁻¹
B6	0.00266 s⁻¹

Molecular target: T3, mouse folate receptor alpha (mFRα), …
Experiment: BLI
Outline: (§4)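 Off-rates were measured by biolayer interferometry on biotinylated human and mouse folate receptor alpha immobilised on streptavidin biosensors. koff was calculated with a 1:1 binding model. Fold change for each variant is relative to its wild-type VHH. It is wild-type koff divided by variant koff when the variant's off-rate is better, and the negative of variant koff divided by wild-type koff when it is worse.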

Binder	koff	nm (Fold wt)
B7	0.00762 s⁻¹	4.7
B8	0.00176 s⁻¹	1.1
B9	0.0154 s⁻¹	9.4
B10	0.00649 s⁻¹	4
B11	0.00614 s⁻¹	3.8
B12	0.00346 s⁻¹	2.1
B13	0.00241 s⁻¹	1.5
B14	0.00376 s⁻¹	2.3
B15	0.0035 s⁻¹	2.1

Molecular target: T4, human folate receptor alpha (hFRα), …
Experiment: BLI
Outline: as §4

Binder	koff	nm (Fold wt)
B7	0.0712 s⁻¹	5.4
B8	0.0159 s⁻¹	1.2
B9	0.381 s⁻¹	29
B10	0.0336 s⁻¹	2.5
B11	0.0747 s⁻¹	5.7
B12	0.0259 s⁻¹	2
B13	0.0255 s⁻¹	2
B14	0.0269 s⁻¹	2
B15	0.024 s⁻¹	1.8

Molecular target: T4, human folate receptor alpha (hFRα), …
Experiment: BLI off-rate screening, crude periplasmic extract, biotinylated human FRα on streptavidin biosensors
Method: (§5) Non-redundant clones were tested as crude periplasmatic extracts for binding analysis to human FRα and mouse FRα proteins captured on streptavidin biosensors in BLI. Variants P0150001 and P0150005 grown in the same 96-well plates were included as controls.

Binder	binding result
B16	binds
B17	binds
B18	binds
B19	binds
B20	binds
B21	binds
B22	binds
B23	binds
B24	binds

Molecular target: T3, mouse folate receptor alpha (mFRα), …
Experiment: BLI, biotinylated FOLR1 on streptavidin biosensors
Method: (§6) The off-rates of the 2HFO9 ^{∘}FIG. 5A) and 2MFR67 ^{∘}FIG. 5B) mutants and the three wild-type ^{∘}WT) VHHs from family 3 were determined by biolayer interferometry ^{∘}BLI) on both mouse and human biotinylated folate receptor alpha ^{∘}FOLR1) that was immobilized on streptavidin biosensors. The off-rates were calculated using a 1:1 binding model. The fold change compared to the off-rates of the corresponding WT VHH is represented as the WT VHH off-rate divided by the off-rate of the mutant for the VHHs that show an improved off-rate compared to the WT. For the VHHs that show a worse off-rate compared to the WT, the fold change is represented as the negative value of the mutant VHH off-rate divided by the WT off-rate. The red bars represent the WT 2HFO9 and 2MFR67 in the upper and lower panel respectively.

Binder	Fold to 2HF042 (koff)	Fold to WT (koff)	koff
B25	0.9	2.6	0.00258 s⁻¹
B26	0.9	0.3	0.00236 s⁻¹
B27	0.2	1.8	0.012 s⁻¹
B28	1	0.3	0.00215 s⁻¹

Molecular target: T4, human folate receptor alpha (hFRα), …
Experiment: BLI, biotinylated FOLR1 on streptavidin biosensors
Method: as §6

Binder	Fold hu/ms (koff)	Fold to WT (koff)	koff
B25	7	2.9	0.0173 s⁻¹
B26	6	0.7	0.0145 s⁻¹
B27	2	1	0.0205 s⁻¹
B28	6	0.6	0.0133 s⁻¹

Molecular target: T3, mouse folate receptor alpha (mFRα), …
Experiment: BLI off-rate screening, crude periplasmic extract, biotinylated mouse FRα on streptavidin biosensors
Method: as §5

Binder	binding result
B16	binds
B17	binds
B18	binds
B19	binds
B20	binds
B21	binds
B22	binds
B23	binds
B24	binds
